How the values were obtained:
[1] = target: T1, human CD71 extracellular domain (CD71-ECD) (human, UniProt P02786 89-760); assay: primary ELISA; also: test concentration or dose not given here
T1 construct: also called hCD71; human CD71-ECD

[2] = target: T1, human CD71 extracellular domain …; assay: primary ELISA, RLU ratio to HSA
[3] = target: human CD71 on cells (SKBR3; SW620-rLuc-KRAS) (human, UniProt P02786 1-760); assay: cell-based or functional assay
Sequence of human CD71 on cells (SKBR3; SW620-rLuc-KRAS) (P02786 whole entry): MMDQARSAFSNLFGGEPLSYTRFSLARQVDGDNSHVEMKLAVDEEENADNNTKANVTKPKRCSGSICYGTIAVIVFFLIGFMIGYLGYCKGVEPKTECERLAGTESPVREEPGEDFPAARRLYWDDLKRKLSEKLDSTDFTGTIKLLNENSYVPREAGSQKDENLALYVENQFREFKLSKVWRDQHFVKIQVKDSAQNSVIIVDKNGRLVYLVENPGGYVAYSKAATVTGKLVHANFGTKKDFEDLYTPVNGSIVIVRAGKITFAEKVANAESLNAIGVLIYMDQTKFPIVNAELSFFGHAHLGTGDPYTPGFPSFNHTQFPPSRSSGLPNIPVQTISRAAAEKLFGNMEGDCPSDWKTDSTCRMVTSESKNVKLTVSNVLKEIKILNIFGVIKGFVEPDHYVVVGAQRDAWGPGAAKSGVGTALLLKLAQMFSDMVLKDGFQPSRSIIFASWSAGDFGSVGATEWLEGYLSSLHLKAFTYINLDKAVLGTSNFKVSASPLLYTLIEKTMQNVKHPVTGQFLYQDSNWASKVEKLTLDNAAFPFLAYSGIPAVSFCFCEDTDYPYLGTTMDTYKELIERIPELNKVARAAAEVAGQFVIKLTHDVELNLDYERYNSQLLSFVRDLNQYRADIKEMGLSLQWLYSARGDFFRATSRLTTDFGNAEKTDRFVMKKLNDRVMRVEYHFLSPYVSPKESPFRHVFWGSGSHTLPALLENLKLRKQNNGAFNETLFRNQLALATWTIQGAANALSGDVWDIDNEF

T1 sequence (P02786 89-760): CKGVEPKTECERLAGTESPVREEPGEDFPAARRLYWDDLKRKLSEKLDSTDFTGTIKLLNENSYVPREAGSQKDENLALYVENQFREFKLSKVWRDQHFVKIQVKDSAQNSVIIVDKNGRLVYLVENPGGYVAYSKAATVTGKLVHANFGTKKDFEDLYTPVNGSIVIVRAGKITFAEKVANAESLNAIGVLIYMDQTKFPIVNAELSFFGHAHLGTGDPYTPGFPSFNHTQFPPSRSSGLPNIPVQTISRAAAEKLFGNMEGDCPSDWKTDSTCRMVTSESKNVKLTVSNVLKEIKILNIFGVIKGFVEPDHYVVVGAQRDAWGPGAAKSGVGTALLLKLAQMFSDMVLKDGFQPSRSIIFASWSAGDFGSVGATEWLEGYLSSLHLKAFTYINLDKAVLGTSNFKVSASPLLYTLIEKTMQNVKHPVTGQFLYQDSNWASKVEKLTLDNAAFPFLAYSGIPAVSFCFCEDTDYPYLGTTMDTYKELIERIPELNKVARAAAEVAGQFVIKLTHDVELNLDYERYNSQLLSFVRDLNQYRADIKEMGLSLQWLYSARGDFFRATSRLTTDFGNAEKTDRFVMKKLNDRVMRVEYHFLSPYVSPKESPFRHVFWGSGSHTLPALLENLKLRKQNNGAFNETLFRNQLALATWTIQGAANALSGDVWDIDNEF

Binder | RLU [1] [RLU] | hCD71:HSA [2] | CTG EC50 (CellTiter-Glo luminescent assay, SKBR3 cells, 72 h) [3] [nM]
CD71-binding FN3 domain SEQ ID NO: 245 (designed binder) MSLPAPKNLVVSRVTEDSARLSWTAPDAAFDSFEISYWEHTFNGEAIILFVPGSERSYDLTGLKPGTEYYVTIGGVKGGAWSPPLWAHFTT | 3.75e+06 | 377 | 
CD71-binding FN3 domain of SEQ ID NO: 491 (designed binder) MLPAPKNLVVSRVTEDSARLSWTAPDAAFDSFFIGYLEPQPSGEAIHLIVPGSERSYDLTGLKPGTEYNVTIQGVKGGFPSDPLVASFTT |  |  | 3.2
CD71-binding FN3 domain of SEQ ID NO: 497 (designed binder) MLPAPKNLVVSRVTEDSARLSWTAPDAAFDSFFIGYLEPQPPGEAITLLVPGSERSYDLTGLKPGTEYNVTIQGVKGGFPSKPLYAYFTT |  |  | 31.3
CD71-binding FN3 domain of SEQ ID NO: 479 (designed binder) MLPAPKNLVVSRVTEDSARLSWTAPDAAFDSFFIGYLEPQPPGEAINLWVPGSERSYDLTGLKPGTEYNVTIQGVKGGFPSTPLFAGFTT |  |  | 30.6
CD71-binding FN3 domain SEQ ID NO: 253 (designed binder) MSLPAPKNLVVSRVTEDSARLSWTAPDAAFDSFDINYWENESGGEAIALFVPGSERSYDLTGLKPGTEYWVSIGGVKGGRFSEPLYARFTT | 3.53e+06 | 324 | 
CD71-binding FN3 domain SEQ ID NO: 259 (designed binder) MSLPAPKNLVVSRVTEDSARLSWTAPDAAFDSFYIAYAEPRPDGEAILLEVPGSERSYDLTGLKPGTEYSVLIHGVKGGLLSSPLSATFTT | 3.77e+06 | 300 | 
CD71-binding FN3 domain SEQ ID NO: 290 (designed binder) MSLPAPKNLVVSRVTEDSARLSWTAPDAAFDSFFIGYLEPQPPGEAIHLYVPGSERSYDLTGLKPGTEYNVTIQGVKGGFPSEPLVATFTT | 5.98e+06 | 138 | 
CD71-binding FN3 domain SEQ ID NO: 333 (designed binder) MSLPAPENLVVSRVTEDSARLSWTAPDAAFDSFFIGYLEPQPPGEAIALYVPGSERSYDLTGLKPGTEYNVTIQGVKGGFPSLPLVATFTT | 5.32e+06 | 146 | 
CD71-binding FN3 domain SEQ ID NO: 258 (designed binder) MSLPAPKNLVVSRVTEDSARLSWTAPDAAFDSFFIGYLEPQPPGEAIVLGVPGSERSYDLTGLKPGTEYNVTIQGVKGGFPSDPLVASFTT | 4.77e+06 | 212 | 
CD71-binding FN3 domain SEQ ID NO: 262 (designed binder) MSLPAPKNLVVSRVTEDSARLSWTAPDAAFDSFFIGYLEPQPPGEVIHLFVPGSERSYDLTGLKPGTEYNVTIQGVKGGFPSDPLVASFTT | 6.78e+06 | 529 | 
CD71-binding FN3 domain SEQ ID NO: 279 (designed binder) MSLPAPKNLVVSRVTEDSARLSWTAPDAAFDSFFIGYLEPQPPGEAIHLYVPGSERSYDLTGLKPGTEYNVTIQGVKGGNWSAPLSAIFTT | 3.66e+06 | 449 | 
CD71-binding FN3 domain SEQ ID NO: 331 (designed binder) MSLPAPKNLVVSRVTEDSARLSWTAPDAAFDSFFIGYLEPQPPGEAIHLYVPGSERSYDLTGLKPGTEYNVTIQGVKVGFPSEPLIANFTT | 4.66e+06 | 524 | 
CD71-binding FN3 domain SEQ ID NO: 293 (designed binder) MSLPAPKNLVVSRVTEDSARLSWTAPDAAFDSFFIGYLEPQPPGEAIDLYVPGSERSYDLTGLKPGTEYNVTIQGVKGGFPSHPLVATFTT | 6.23e+06 | 561 | 
CD71-binding FN3 domain SEQ ID NO: 266 (designed binder) MSLPAPKNLVVSRVTEDSARLSWTAPDAAFDSFFIGYLEPQPPGEAIYLLVPGSERSYDLTGLKPGTEYNVTIQGVKGGFPSLPLVATFTT | 5.41e+06 | 150 | 

The next lines start with the values.

RLU [1] [RLU] | hCD71:HSA [2] | CTG EC50 (CellTiter-Glo luminescent assay, SKBR3 cells, 72 h) [3] [nM] | Binder
3.4e+06 | 178 |  | CD71-binding FN3 domain SEQ ID NO: 241 (designed binder) MSLPAPKNLVVSRVTEDSARLSWTAPDAAFDSFMIAYDEFIVWGEAVVLTVPGSERSYDLTGLKPGTEYLVEILGVKGGTISGPLSAIFTT
1.7e+06 | 131 |  | CD71-binding FN3 domain SEQ ID NO: 332 (designed binder) MSLPAPKNLVVSRVTEDSARLSWTAPDAAFDSFEIGYWEGPGGGEAIILVVPGSERSYDLTGLKPGTEYYVQIGGVKGGDWSTPLWATFTT
3.12e+06 | 92 |  | CD71-binding FN3 domain SEQ ID NO: 267 (designed binder) MSLPAPKNLVVSRVTEDSARLSWTAPDAAFDSFEISYWEHTFNGEAIILFVPGSERSYDLTGLKPGTEYYVTIGGVKGGAWSPPLWAEFTT
 |  | 53.4 | CD71-binding FN3 domain of SEQ ID NO: 347 (designed binder) MLPAPKNLVVSRVTEDSARLSWTAPDAAFDSFFIGYLEPQPPGEAIGLFVPGSERSYDLTGLKPGTEYNVTIQGVKGGFPSEPLKAAFTT
 |  | 0.4 | CD71-binding FN3 domain of SEQ ID NO: 445 (designed binder) MLPAPKNLVVSRVTEDSARLSWTAPDAAFDSFFIGYLEPQPPGEAIHLFVPGSERSYDLTGLKPGTEYNVTIQGVKGGFPSDPLVASFTT
 |  | 0.2 | CD71-binding FN3 domain of SEQ ID NO: 469 (designed binder) MLPAPKNLVVSRVTEDSARLSWTAPDAAFDSFFIGYLEPQPPGEAIHLYVPGSERSYDLTGLKPGTEYNVTIQGVKGGFPSLPLVATFTT
 |  | 0.1 | CD71-binding FN3 domain of SEQ ID NO: 527 (designed binder) MLPAPKNLVVSRVTEDSARLSWTAPDAAFDSFFIGYLEPQPPGEAIHLYVPGSERSYDLTGLKPGTEYNVTIQGVKGGFPSEPLIANFTT
 |  | 5.8 | CD71-binding FN3 domain of SEQ ID NO: 410 (designed binder) MLPAPKNLVVSRVTEDSARLSWTAPDAAFDSFFIGYLEPQPPGEAIALWVPGSERSYDLTGLKPGTEYNVTIQGVKGGFPSQPLHAHFTT
 |  | 10.9 | CD71-binding FN3 domain of SEQ ID NO: 370 (designed binder) MLPAPKNLVVSRVTEDSARLSWTAPDAAFDSFYIAYAEPRPDGEAIVLVVPGSERSYDLTGLKPGTEYSVLIHGVKGGLLSSPLSAHFTT
3.43e+06 | 535 |  | CD71-binding FN3 domain SEQ ID NO: 261 (designed binder) MSLPAPKNLVVSRVTEDSARLSWTAPDAAFDSFYIAYAEPRPDGEAILLWVPGSERSYDLTGLKPGTEYSVLIHGVKGGLLSSPLHAYFTT
5.66e+06 | 409 |  | CD71-binding FN3 domain SEQ ID NO: 265 (designed binder) MSLPAPKNLVVSRVTEDSARLSWTAPDAAFDSFFIGYLEPQPPGEAISLYVPGSERSYDLTGLKPGTEYNVTIQGVKGGFPSDPLVAHFTT
5.5e+06 | 65 |  | CD71-binding FN3 domain SEQ ID NO: 270 (designed binder) MSLPAPKNLVVSRVTEDSARLSWTAPDAAFDSFFIGYLEPQPPGEAIHLYVPGSERSYDLTGLKPGTEYNVTIQGVKGGFPSEPLIANSTT
2.78e+06 | 355 |  | CD71-binding FN3 domain SEQ ID NO: 243 (designed binder) MSLPAPKNLVVSRVTEDSARLSWTAPDAAFDSFFIGYLEPQPPGEAIHLYVPGSERSYDLTGLKPGTEYNVTIQGVKGGEWSAPLSAIFTT
6.42e+06 | 683 |  | CD71-binding FN3 domain SEQ ID NO: 234 (designed binder) MSLPAPKNLVVSRVTEDSARLSWTAPDAAFDSFFIGYLEPQPPGEAIALYVPGSERSYDLTGLKPGTEYNVTIQGVKGGFPSEPLVAHFTT
6.2e+06 | 438 |  | CD71-binding FN3 domain SEQ ID NO: 295 (designed binder) MSLPAPKNLVVSRVTEDSARLSWTAPDAAFDSFFIGYLEPQPPGEAIDLYVPGSERSYDLTGLKPGTEYNVTIQGVKGGFPSEPLVATFTT
6.37e+06 | 380 |  | CD71-binding FN3 domain SEQ ID NO: 281 (designed binder) MSLPAPKNLVVSRVTEDSARLSWTAPDAAFDSFFIGYLEPQPPGEAIALYVPGSERSYDLTGLKPGTEYNVTIQGVKGGFPSEPLIANFTT
6.48e+06 | 215 |  | CD71-binding FN3 domain SEQ ID NO: 294 (designed binder) MSLPAPKNLVVSRVTEDSARLSWTAPDAAFDSFFIGYLEPQPLGEAIHLFVPGSERSYDLTGLKPGTEYNVTIQGVKGGFPSEPLIASFTT
5.77e+06 | 508 |  | CD71-binding FN3 domain SEQ ID NO: 264 (designed binder) MSLPAPKNLVVSRVTEDSARLSWTAPDAAFDSFFIGYLEPQPPGEAIALYVPGSERSYDLTGLKPGTEYNVTIQGVKGGFPSEPLVVHFTT
3.78e+06 | 664 |  | CD71-binding FN3 domain SEQ ID NO: 273 (designed binder) MLPAPKNLVVSRVTEDSARLSWTAPDAAFDSFEISYWEHTFNGEAIILFVPGSERSYDLTGLKPGTEYYVTIGGVKGGAWSPPLWAEFTT
3.72e+06 | 39 |  | CD71-binding FN3 domain SEQ ID NO: 240 (designed binder) MSLPAPKNLVVSRVTEDSARLSWTAPDAAFDSFHIWYFEKANEGEAIPLVVPGSERSYDLTGLKPGTEYDVDIGGVKGGAWSIPLGARFTT

Reference: patent US20260151494A1 (ARO BIOTHERAPEUTICS, published 2026)
